According to patent US20240254202A1 (CONSEJO NACIONAL DE INVESTIGACIONES CIENT FICAS Y T CNICAS …, published 2024):
Residue numbers refer to the chain shown, from its start.

B1: NbCoV_43 (VHH)
VHH: QVQLQESGGGLVQPGGSLRLSCVASGSIGSINHMAWFRKPPGKERELVASITLAPDEIAYYADSVKGRFAISKGNAQPTLYLQMNSLKPEDTAVYYCHFRQIRANAHDVYWGQGTQVTVSS
notes: also called Nb 43
B2: NbCoV_125 (VHH)
VHH: QVQLQESGGGLVQPGGSLRLSCAASAHFFSGGAMGWYRQAPGKERELVATITGGGDTNYAEHVKGRCTISSDISDNTVYLQMISLKPDDTAVYYCYARDLLQHPFWGQGTQVTVSS
B3: NbCoV_136 (VHH)
VHH: QVQLQESGGGLVQTGGSLRLSCAASGRTASSYTMGWFRQAAGKERDFVAAIRESLGYTNYADSVKGRFTISRDNANNTVYLQMNSLKPEDTAVYYCAAYEGIRYSSTRADFYNYWGQGTQVTVSS
B4: NbCoV_31 (VHH)
VHH: QVQLQESGGGLVQAGGSLRLSCAASGRTFSRSAVAWFRQAPGKEREFVAGISWSGRNVNYANSVKGRFTISRDSTKNTVYLQMNSLKPEDTAVYYCATSQFGSGTSDSEQYDYWGQGTQVTVSS
B5: NbCoV_71 (VHH)
VHH: QVQLQESGGGLVQAGGSLRLSCAASGLTFGYTATAWFRQAPGKEREFVARIFKRGGYTYYSDSVKGRFTVSRDSAKDTVYLQMNSLKSEDTAVYYCAVAREWSDLDFRDGYDYWGQGTQVTVSS
B6: NbCoV_110 (VHH)
VHH: QVQLQESGGGLVQAGDSLRLSCAASGRTFGSHATAWFRQAPGKEREFVARIFWRGDYTYYADSVKGRFTISRDSAKNTVYLQMNSLKSEDTAVYYCAVARSWSDLDFENGYDYWGQGTQVTVSS
notes: also called Nb 110
B7: NbCoV_104 (VHH)
VHH: QVQLQESGGGLVQPGGSLRLSCAASGSIFRVMGWYRQAPGKEHDLVATITRSGDTNYADSVKGRFTISRDNTKNTVYLQMNNLKPEDTDVYYCYARNFVGHNPDVWGQGTQVTVSS
notes: also called Nb 104
B8: NbCoV_29 (VHH)
VHH: QVQLQESGGGLVQAGGSLRLSCAASGRTLYAMGWFRQAPGKEREFVAAKSWNGGNTYYADSVKGRFTISKDNAKNTVYLQMNSLKPEDTAVYNCAASSWDSRGSSNYVHYDYWGQGTQVTVSS
B9: NbCoV_45 (VHH)
VHH: B8 VHH with A23V, K49T, Y57N, A59G, D60E, W99R, S104T, N106T, V108A, H109S
notes: also called Nb 45; Nb45
B10: NbCoV_10 (VHH)
VHH: QVQLQESGGGLVQAGGSLHLSCTASGSENMLRWYAVGWYRQAPGKQRELVATITRGGSTNVVDSVKGRFTISRDNAKNMVALQMNSLKPEDTAVYSCAAAYAPYTDYHPVEYVYWGQGTQVTVSS
notes: also called Nb 10; 10 Mebus
B11: NbCoV_39 (VHH)
VHH: QVQLQESGGGLVQAGGSLRLSCAASGRTFSSTAMAWFRQAPGQEREFVATISWSGDNTKYADSVKGRFTISRDNAKNTVYLQMNSLKPEDTAVYYCAADPGNFGVPIEYFMFDYWGQGTQVTVSS
notes: also called Nb 39; 39A
B12: NbCoV_145 (VHH)
VHH: QVQLQESGGGLVQAGGSLRLSCAASGRTFSSYAMGWFRQAPGKEREFVAVINWSGANTRYTDSVKGRFSISRDNAKNTVYLQMNSLKPEDTAVYYCAADPGNFGVPIEHFMYDYWGQGTQVTVSS
notes: also called Nb 145
B13: NbCoV_48 (VHH)
VHH: QVQLQESGGGLVQPGGSLRLSCVASRSIGSINHMAWYRKAPGKERELVASITLSPSETVYYTEVVKGRFAISKGNAQNTLYLQMNSLKPEDTAVYYCHFRQIRAIADDVYWGQGTQVTVSS
B14: NbCoV_78 (VHH)
VHH: QVQLQESGGGLVQAGGSLRLSCVASGRAFSSSSMGWFRQAPGKEREFVAAIRWSDDNTVYVDSVKGRFAISRDNAKNTVYLQMNSLKPEDTAVYYCAATGLGYRYAVLESRSEYRYWGQGTQVTVSS
B15: NbCoV_46 (VHH)
VHH: QVQLQESGGGLVQAGDSLRLSCAASGRTFSSLSAGWFRQAPGKEREFVAAIRWSDYNTYYVDSVKGRFTISRDNAKNTVYLQMDSLKPEDTAVYYCAATALGYRYASLESRNEYRYWGQGTQVTVSS
B16: NbCoV_27 (VHH)
VHH: QVQLQESGGGLVQPGGSLRLSCAASGSGFSLRVMGWYRQAPGKEHRLVATISRTGITNYADSVKGRFTISRDNAKDTVYLQMNNLKPEDTDVYYCYARNFVGDDFNLWGQGTQVTVSS
B17: NbCoV_32 (VHH)
VHH: QVQLQESGGGSVQPGGSLRLSCAVSRSRFSLVTMGWYRQAPGKERELVAAIAIGGSTKYADSVKGRFTISRDNAKSTVYLQMNSLQPEDTAVYYCNEARVYDSNWYPRDYWGQGTQVTVSS
B18: NbCoV_44 (VHH)
VHH: QVQLQESGGGLVQAGGSLRLSCAASGRTVSYRVMGWFRQAPGKEREFVAFVDWSSGTAYYAESVQGRFIMSRDTADNTGFLQMNNLKPEDTAVYYCAADPFFRVIAYSDPKRYSYWGQGTQVTVSS

Legend:
[1] = molecular target: Spike protein of wild-type virus isolate USA-WA1/2020 (SARS-CoV-2, UniProt P0DTC2 14-1273); test: cell-based or functional assay
[2] = molecular target: T1, Receptor Binding Domain (RBD) of the SARS-COV-2 protein S (SARS-CoV-2, UniProt P0DTC2 319-541); test: ELISA, purified nanobody, RBD coated
[3] = molecular target: Peptide 84 of the Spike peptide array (B.E.I resources NR-52402); test: peptide array ELISA, 100 ng peptide coated, 100 ng nanobody per well
[4] = molecular target: T1, Receptor Binding Domain (RBD) of the …; test: phage ELISA, RBD coated
[5] = molecular target: Peptide 16 of the Spike peptide array (B.E.I resources NR-52402); test: peptide array ELISA, 100 ng peptide coated, 100 ng nanobody per well
[6] = molecular target: Peptide 125 of the Spike peptide array (B.E.I resources NR-52402); test: as above
[7] = molecular target: Peptide 175 of the Spike peptide array (B.E.I resources NR-52402); test: as above
[8] = molecular target: T1, Receptor Binding Domain (RBD) of the …; test: as told in Example 8
[9] = molecular target: Peptide 59 of the Spike peptide array (B.E.I resources NR-52402); test: peptide array ELISA, 100 ng peptide coated, 100 ng nanobody per well

Binder | EC50 [2] [nM] | also measured
B1 | 0.18 | wildtype VN, plaque reduction assay, neutralizing activity [1]: 3.12 nM; OD 405 nm [3]: 0.555 OD 405 nm
B2 |  | binding result [4]: binds; OD 405 nm [3]: 0.214 OD 405 nm
B3 | 13.4 | 
B4 | 137 | 
B5 | 1.63 | 
B6 | 32.4 | OD 405 nm [5]: 0.64 OD 405 nm
B7 | 5.45 | wildtype VN, plaque reduction assay, neutralizing activity [1]: 0.977 nM; OD 405 nm [6]: 0.731 OD 405 nm; OD 405 nm [7]: 0.503 OD 405 nm
B8 | 55.9 | 
B9 |  | binding result [4]: no binding
B10 |  | binding result [8]: binds; OD 405 nm [3]: 0.226 OD 405 nm
B11 | 0.29 | wildtype VN, plaque reduction assay, neutralizing activity [1]: 0.244 nM; OD 405 nm [9]: 0.423 OD 405 nm
B12 | 4.63 | 
B13 | 1.78 | 
B14 | 16.6 | 
B15 |  | binding result [4]: no binding
B16 | 0.7 | 
B17 | 83.6 | 
B18 | 16.8 | 
